Experimental findings from paper PMC4681580 (Journal of immunology (Baltimore, Md. : 1950), 2015) are described below.

Assay in all cases: cross-linking
For experiment [1], the target named is T1, wild type rat TAP1/TAP2a complex (rat) (UniProt P36370).
T1 sequence (P36370 whole entry, looked up): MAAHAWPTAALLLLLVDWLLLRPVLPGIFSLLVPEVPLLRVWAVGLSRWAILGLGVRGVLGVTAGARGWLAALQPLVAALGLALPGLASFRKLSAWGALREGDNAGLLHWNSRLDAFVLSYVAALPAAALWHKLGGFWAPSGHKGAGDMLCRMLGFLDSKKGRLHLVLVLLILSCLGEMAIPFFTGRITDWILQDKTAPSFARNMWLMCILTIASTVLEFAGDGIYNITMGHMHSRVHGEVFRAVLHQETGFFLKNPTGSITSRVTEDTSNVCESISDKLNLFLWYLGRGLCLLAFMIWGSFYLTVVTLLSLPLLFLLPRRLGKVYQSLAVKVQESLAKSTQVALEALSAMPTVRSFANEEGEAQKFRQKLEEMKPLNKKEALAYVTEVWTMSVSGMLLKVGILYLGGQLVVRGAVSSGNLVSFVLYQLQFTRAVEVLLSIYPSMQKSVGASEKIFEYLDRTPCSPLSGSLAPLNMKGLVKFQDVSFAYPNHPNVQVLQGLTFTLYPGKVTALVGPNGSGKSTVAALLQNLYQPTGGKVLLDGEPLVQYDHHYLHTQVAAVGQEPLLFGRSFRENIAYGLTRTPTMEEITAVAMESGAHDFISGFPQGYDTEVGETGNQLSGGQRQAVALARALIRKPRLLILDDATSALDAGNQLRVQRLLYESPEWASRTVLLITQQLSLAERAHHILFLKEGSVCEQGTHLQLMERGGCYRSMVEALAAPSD
T1 sequence (P36372 whole entry, looked up): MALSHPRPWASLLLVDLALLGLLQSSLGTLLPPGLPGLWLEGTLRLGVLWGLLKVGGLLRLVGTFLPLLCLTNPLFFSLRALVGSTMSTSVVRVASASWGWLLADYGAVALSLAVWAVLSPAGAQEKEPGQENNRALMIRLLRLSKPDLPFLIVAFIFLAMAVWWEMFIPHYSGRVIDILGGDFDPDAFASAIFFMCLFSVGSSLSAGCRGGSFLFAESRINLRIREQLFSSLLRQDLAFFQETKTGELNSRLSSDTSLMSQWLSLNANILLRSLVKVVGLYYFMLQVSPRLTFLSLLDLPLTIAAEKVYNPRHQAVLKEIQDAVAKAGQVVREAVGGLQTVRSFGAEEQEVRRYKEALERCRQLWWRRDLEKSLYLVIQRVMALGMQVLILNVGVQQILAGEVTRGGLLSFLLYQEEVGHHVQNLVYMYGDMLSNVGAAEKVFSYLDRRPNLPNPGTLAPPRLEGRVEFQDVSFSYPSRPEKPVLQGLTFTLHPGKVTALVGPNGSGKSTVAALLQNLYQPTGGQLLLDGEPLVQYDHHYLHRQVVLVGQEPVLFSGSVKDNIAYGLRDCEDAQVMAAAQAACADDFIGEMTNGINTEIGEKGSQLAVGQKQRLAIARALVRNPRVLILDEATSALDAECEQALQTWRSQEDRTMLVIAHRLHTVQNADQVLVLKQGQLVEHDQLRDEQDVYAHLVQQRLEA

The next experiment addresses T2, rTAP1/TAP2a(E218M) (rat) (UniProt P36370).
T2 sequence (P36370 1-725 with E218M, looked up): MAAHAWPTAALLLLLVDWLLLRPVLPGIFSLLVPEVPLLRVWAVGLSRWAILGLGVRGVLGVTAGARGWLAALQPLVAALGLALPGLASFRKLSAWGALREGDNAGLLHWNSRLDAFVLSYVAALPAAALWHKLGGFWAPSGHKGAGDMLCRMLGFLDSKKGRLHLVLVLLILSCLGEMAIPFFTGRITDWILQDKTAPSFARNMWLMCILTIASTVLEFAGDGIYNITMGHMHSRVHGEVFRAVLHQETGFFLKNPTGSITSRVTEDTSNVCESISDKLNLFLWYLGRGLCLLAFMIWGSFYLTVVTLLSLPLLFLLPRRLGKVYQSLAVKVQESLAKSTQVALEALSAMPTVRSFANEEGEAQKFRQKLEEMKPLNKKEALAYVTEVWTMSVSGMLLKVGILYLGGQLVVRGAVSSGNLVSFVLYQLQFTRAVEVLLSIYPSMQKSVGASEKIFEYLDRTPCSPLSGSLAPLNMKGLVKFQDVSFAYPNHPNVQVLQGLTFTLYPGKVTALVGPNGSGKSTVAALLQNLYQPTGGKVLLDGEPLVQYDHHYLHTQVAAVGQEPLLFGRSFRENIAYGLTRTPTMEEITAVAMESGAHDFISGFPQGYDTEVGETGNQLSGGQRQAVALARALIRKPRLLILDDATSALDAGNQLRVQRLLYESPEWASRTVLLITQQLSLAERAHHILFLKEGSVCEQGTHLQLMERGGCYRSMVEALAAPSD
T2 sequence (P36372 1-703 with E218M, looked up): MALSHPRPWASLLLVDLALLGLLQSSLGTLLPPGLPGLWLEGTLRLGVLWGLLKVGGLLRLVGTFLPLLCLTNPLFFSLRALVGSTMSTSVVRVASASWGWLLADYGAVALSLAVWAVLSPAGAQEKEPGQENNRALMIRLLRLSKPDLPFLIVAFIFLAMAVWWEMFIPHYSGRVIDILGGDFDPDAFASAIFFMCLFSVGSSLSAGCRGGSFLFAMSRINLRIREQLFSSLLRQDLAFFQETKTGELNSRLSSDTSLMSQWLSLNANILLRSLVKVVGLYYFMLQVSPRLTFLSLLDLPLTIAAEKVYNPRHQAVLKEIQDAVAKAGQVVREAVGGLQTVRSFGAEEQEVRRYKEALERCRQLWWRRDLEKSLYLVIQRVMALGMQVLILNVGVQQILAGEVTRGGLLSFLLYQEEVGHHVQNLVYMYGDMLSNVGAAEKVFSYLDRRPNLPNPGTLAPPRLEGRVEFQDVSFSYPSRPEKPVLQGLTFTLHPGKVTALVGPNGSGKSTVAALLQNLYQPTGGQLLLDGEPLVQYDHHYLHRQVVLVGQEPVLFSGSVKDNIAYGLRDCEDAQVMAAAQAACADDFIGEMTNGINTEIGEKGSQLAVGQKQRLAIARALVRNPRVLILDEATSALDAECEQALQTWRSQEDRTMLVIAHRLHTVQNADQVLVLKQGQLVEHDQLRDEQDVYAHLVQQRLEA

Experiment [2] deals with T3, rTAP1/TAP2a(E218M/Q262R/S265P/L266F) (rat) (UniProt P36370).
T3 sequence (P36370 1-725 with E218M Q262R S265P L266F, looked up): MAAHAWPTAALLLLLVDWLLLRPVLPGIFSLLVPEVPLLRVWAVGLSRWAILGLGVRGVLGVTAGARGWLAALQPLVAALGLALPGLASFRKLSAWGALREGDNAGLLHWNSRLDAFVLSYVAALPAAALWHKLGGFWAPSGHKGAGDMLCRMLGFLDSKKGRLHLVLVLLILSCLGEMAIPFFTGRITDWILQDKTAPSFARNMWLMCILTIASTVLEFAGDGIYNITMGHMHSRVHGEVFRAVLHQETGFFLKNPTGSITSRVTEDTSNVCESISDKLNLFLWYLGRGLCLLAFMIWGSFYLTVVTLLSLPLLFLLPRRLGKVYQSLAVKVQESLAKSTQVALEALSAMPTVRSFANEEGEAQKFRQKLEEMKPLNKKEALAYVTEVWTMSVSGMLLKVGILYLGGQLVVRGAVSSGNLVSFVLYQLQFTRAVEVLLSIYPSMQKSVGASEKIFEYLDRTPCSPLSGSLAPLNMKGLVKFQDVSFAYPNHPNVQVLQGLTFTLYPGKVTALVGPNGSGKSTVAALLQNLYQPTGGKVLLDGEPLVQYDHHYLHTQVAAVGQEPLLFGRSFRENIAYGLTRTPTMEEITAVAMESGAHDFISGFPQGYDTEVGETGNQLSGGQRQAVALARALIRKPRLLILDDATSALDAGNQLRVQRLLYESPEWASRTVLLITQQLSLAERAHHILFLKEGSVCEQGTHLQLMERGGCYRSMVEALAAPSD
T3 sequence (P36372 1-703 with E218M Q262R S265P L266F, looked up): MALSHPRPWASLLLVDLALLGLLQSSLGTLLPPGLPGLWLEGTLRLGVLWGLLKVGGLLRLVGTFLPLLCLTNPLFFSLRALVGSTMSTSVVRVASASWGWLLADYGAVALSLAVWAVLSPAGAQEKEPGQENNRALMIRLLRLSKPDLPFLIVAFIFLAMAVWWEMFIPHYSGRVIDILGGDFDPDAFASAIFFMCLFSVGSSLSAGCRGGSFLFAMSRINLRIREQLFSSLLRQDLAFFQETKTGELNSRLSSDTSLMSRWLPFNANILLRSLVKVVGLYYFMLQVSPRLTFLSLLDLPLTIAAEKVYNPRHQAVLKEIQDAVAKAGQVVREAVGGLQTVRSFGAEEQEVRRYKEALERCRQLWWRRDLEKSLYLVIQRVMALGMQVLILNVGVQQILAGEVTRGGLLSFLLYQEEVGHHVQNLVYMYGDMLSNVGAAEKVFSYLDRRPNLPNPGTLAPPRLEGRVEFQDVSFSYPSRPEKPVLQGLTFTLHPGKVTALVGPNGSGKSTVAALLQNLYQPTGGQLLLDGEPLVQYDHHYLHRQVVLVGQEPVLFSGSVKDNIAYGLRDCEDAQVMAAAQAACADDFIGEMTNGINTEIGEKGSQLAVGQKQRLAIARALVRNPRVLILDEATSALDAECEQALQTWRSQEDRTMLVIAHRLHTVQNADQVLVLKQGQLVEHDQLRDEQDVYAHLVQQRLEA

Primed or numbered codes have the meaning given here. No end group written: not given here. FITC′ = fluorescein isothiocyanate

As a reminder, the Kd is the concentration at which binding is half-saturated. A low value points to a tighter complex. On to TVDNK(FITC′)CAYV [TVDNK*CAYV (TC6V), FITC-labeled], for which the Kd in experiment [1] came to 417 nM; with rTAP1/TAP2a(E218M) (rat), 339 nM; in experiment [2] it was 107 nM.
One may read the IC50 as the concentration that gives 50% inhibition. Higher therefore signals lower potency. In the case of TVDNKTAYR […, unlabeled competitor peptide], the IC50 in experiment [1] was over 2000 nM.
In turn, TVDNK(FITC′)CAYR [TVDNK*CAYR (TC6R), FITC-labeled] yielded a Kd in experiment [1] of 187 nM.
